Measured values: patent US20210087244A1 (UNIVERSITY OF BRITISH COLUMBIA, published 2021)

What was measured:
Test in all cases: SPR direct binding (MASS-1), hybridoma supernatant over immobilized antigen
[1] = target: T1, cyclo(CGHHQKG)-conjugated-BSA (SEQ ID NO: 2) (bovine, UniProt P02769 25-607, head-to-tail cyclized (amide bond between N- and C-terminus); conjugated to SMCC-activated BSA)
T1 construct: also called Cyclic-Peptide; cyclic peptide-BSA
Procedure: (§1) All SPR measurements were performed using a Molecular Affinity Screening System (MASS-1) (Sierra Sensors GmbH, Hamburg, Germany), an analytical biosensor that employs high intensity laser light and high speed optical scanning to monitor binding interactions in real time. The primary screening of tissue culture supernatants was performed using an SPR direct binding assay, whereby BSA-conjugated peptides, A-beta42 Monomer and A-beta42 Oligomer are covalently immobilized on individual flow cells of a High Amine Capacity (HAC) sensorchip (Sierra Sensors GmbH, Hamburg, Germany) and antibodies flowed over the surface. Protein G purified mAbs were analyzed in a secondary screen using an SPR indirect (capture) binding assay, whereby the antibodies were captured on a protein A-derivatized sensorchip (XanTec Bioanalytics GmbH, Duesseldorf, Germany) and A-beta40 Monomer, A-beta42 Oligomer, soluble brain extracts and cerebrospinal fluid flowed over the surface. The specificity of the antibodies was verified in an SPR direct binding assay by covalently immobilizing A-beta42 Monomer and A-beta42 Oligomer on individual flow cells of a HAC sensorchip and flowing purified mAbs.
(§2) Clones were retested for their ability to bind cyclic peptide, linear peptide, A-beta 1-42 monomer and A-beta 1-42 oligomers prepared as described above. Binding assays were performed using SPR as described above (Direct binding assays).

[2] = target: T2, linear CGHHQKG-conjugated-BSA (SEQ ID NO: 2) (bovine, UniProt P02769 25-607, conjugated to BSA)
T2 construct: also called Linear-Peptide; linear peptide-BSA
T2 sequence (P02769 25-607 limits assumed): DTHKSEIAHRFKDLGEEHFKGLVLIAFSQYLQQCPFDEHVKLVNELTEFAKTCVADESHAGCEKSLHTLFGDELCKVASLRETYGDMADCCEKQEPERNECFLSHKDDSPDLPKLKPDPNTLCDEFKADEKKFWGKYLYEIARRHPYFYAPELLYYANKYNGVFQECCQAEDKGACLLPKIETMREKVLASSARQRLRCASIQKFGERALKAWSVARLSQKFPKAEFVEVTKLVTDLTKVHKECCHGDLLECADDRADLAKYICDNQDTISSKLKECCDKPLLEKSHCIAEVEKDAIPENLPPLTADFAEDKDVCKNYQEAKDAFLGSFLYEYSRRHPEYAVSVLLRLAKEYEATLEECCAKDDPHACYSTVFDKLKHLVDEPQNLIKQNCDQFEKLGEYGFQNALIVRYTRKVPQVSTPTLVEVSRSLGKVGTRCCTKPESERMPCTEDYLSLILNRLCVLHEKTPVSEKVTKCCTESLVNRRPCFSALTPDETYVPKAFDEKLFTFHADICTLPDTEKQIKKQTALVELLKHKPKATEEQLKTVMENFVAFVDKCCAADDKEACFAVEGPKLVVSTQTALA
Procedure: as §1, §2

[3] = target: T3, A-beta42 Oligomer (human)
T3 construct: also called A β 42 Oligomer; A-beta 1-42 oligomers
T3 sequence (peptide, as listed by the source): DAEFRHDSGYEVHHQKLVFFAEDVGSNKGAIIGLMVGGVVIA
Procedure: as §1, §2

T1 sequence (P02769 25-607 limits assumed): as the sequence (P02769 25-607 limits assumed) above

B1: 301-12G11 (17) (antibody, V domains shown)
VH: QVQLQQPGAELVKPGASVKMSCKASGYSFTSYWINWVKQRPGQGLEWIGDVHPGRGVSTYNAKFKSKATLTLDTSSSTAYMQLSSLTSEDSAVYYCSRSHGNTYWFFDVWGAGTTVTVSS
VL: DVLMTQTPLSLPVSLGDQASISCRSSQSIVHSNGNTYLEWYLQKPGQSPKLLIYKVSNRFSGVPDRFSGSGSGTDFTLKISRVEAEDLGVYYCFQGSHVPFTFGSGTKLEIKR
notes: they begin with a leader (MGWSC.../MKLPV...) and end with a few constant-region residues
In the case of B1, the “response units (RU)” value [1] is reported as 698 RU, the “response units (RU)” value [2] is reported as 1150 RU and the “response units (RU)” value [3] is reported as 66.8 RU.
